# Assay results published in IntAct's records for PubMed 29477555.
# B1: Serine protease HTRA3 (Homo sapiens), P83110-2 (parent)
# chain: MQARALLLAALAALALAREPPAAPCPARCDVSRCPSPRCPGGYVPDLCNCCLVCAASEGEPCGGPLDSPCGESLECVRGLCRCRWSHAVCGTDGHTYANVCALQAASRRALQLSGTPVRQLQKGACPLGLHQLSSPRYKFNFIADVVEKIAPAVVHIELFLRHPLFGRNVPLSSGSGFIMSEAGLIITNAHVVSSNSAAPGRQQLKVQLQNGDSYEATIKDIDKKSDIATIKIHPKKKLPVLLLGHSADLRPGEFVVAIGSPFALQNTVTTGIVSTAQREGRELGLRDSDMDYIQTDAIINYGNSGGPLVNLDGEVIGINTLKVTAGISFAIPSDRITRFLTEFQDKQIKAPSLAVH
# B2: Serine protease HTRA3 (Homo sapiens), P83110-1 (parent)
# chain: MQARALLLAALAALALAREPPAAPCPARCDVSRCPSPRCPGGYVPDLCNCCLVCAASEGEPCGGPLDSPCGESLECVRGLCRCRWSHAVCGTDGHTYANVCALQAASRRALQLSGTPVRQLQKGACPLGLHQLSSPRYKFNFIADVVEKIAPAVVHIELFLRHPLFGRNVPLSSGSGFIMSEAGLIITNAHVVSSNSAAPGRQQLKVQLQNGDSYEATIKDIDKKSDIATIKIHPKKKLPVLLLGHSADLRPGEFVVAIGSPFALQNTVTTGIVSTAQREGRELGLRDSDMDYIQTDAIINYGNSGGPLVNLDGEVIGINTLKVTAGISFAIPSDRITRFLTEFQDKQIKDWKKRFIGIRMRTITPSLVDELKASNPDFPEVSSGIYVQEVAPNSPSQRGGIQDGDIIVKVNGRPLVDSSELQEAVLTESPLLLEVRRGNDDLLFSIAPEVVM
# Variants of: B1
# Details: with tcpa_human TCP1, P17987
row,effect of a mutation on the interaction,Variant
1,decreasing interaction strength,MQARALLLAALAALALAREPPAAPCPARCDVSRCPSPRCPGGYVPDLCNCCLVCAASEGEPCGGPLDSPCGESLECVRGLCRCRWSHAVCGTDGHTYANVCALQAASRRALQLSGTPVRQLQKGACPLGLHQLSSPRYKFNFIADVVEKIAPAVVHIELFLRHPLFGRNVPLSSGSGFIMSEAGLIITNAHVVSSNSAAPGRQQLKVQLQNGDSYEATIKDIDKKSDIATIKIHPKKKLPVLLLGHSADLRPGEFVVAIGSPFALQNTVTTGIVSTAQREGRELGLRDSDMDYIQTDAIINYGNAGGPLVNLDGEVIGINTLKVTAGISFAIPSDRITRFLTEFQDKQIKAPSLAVH [S305A]

# Variants of: B2
# Details: with tcpa_human TCP1, P17987
# Target sequence in this assay (P17987 whole entry): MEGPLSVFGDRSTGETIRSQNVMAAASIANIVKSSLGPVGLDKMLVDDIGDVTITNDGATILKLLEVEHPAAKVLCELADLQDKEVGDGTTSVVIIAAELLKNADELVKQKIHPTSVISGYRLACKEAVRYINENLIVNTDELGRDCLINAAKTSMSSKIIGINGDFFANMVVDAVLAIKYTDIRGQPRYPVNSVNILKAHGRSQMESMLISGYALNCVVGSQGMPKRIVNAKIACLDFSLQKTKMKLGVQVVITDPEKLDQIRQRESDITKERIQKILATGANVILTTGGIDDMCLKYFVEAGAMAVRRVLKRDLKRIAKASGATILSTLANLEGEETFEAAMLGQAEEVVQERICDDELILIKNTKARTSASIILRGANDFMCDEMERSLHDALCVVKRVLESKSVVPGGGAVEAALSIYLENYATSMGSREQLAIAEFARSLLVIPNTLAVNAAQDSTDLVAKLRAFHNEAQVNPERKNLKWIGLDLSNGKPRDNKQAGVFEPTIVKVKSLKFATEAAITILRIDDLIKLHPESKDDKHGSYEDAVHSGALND
row,effect of a mutation on the interaction,Variant
1,decreasing interaction strength,MQARALLLAALAALALAREPPAAPCPARCDVSRCPSPRCPGGYVPDLCNCCLVCAASEGEPCGGPLDSPCGESLECVRGLCRCRWSHAVCGTDGHTYANVCALQAASRRALQLSGTPVRQLQKGACPLGLHQLSSPRYKFNFIADVVEKIAPAVVHIELFLRHPLFGRNVPLSSGSGFIMSEAGLIITNAHVVSSNSAAPGRQQLKVQLQNGDSYEATIKDIDKKSDIATIKIHPKKKLPVLLLGHSADLRPGEFVVAIGSPFALQNTVTTGIVSTAQREGRELGLRDSDMDYIQTDAIINYGNAGGPLVNLDGEVIGINTLKVTAGISFAIPSDRITRFLTEFQDKQIKDWKKRFIGIRMRTITPSLVDELKASNPDFPEVSSGIYVQEVAPNSPSQRGGIQDGDIIVKVNGRPLVDSSELQEAVLTESPLLLEVRRGNDDLLFSIAPEVVM [S305A]
